Here are results for one molecule from paper PMC12068309, “AHCYL1 mediates the tumor-promoting effect of PREX2 in non-small cell lung carcinoma” (Theranostics, 2025).

This assay addresses T1, purified Flag-PREX2 protein (UniProt Q70Z35 1-1606).
T1 construct: PREX2, full length (183 kD); it may be the same construct; also called purified PREX2 protein; purified full-length PREX2; source: recombinant, purified (as described in Supplementary materials and methods)
Put plainly: pull-down; 25 µL AHCYL1-binding glutathione magnetic beads with 250 ng purified Flag-PREX2, on ice 1 h; washed with 50 mM Tris-HCl pH 7.4, 300 mM NaCl, 0.5% NP40; detected by Flag antibody. The settings on record: both partners purified.

T1 sequence (Q70Z35 whole entry): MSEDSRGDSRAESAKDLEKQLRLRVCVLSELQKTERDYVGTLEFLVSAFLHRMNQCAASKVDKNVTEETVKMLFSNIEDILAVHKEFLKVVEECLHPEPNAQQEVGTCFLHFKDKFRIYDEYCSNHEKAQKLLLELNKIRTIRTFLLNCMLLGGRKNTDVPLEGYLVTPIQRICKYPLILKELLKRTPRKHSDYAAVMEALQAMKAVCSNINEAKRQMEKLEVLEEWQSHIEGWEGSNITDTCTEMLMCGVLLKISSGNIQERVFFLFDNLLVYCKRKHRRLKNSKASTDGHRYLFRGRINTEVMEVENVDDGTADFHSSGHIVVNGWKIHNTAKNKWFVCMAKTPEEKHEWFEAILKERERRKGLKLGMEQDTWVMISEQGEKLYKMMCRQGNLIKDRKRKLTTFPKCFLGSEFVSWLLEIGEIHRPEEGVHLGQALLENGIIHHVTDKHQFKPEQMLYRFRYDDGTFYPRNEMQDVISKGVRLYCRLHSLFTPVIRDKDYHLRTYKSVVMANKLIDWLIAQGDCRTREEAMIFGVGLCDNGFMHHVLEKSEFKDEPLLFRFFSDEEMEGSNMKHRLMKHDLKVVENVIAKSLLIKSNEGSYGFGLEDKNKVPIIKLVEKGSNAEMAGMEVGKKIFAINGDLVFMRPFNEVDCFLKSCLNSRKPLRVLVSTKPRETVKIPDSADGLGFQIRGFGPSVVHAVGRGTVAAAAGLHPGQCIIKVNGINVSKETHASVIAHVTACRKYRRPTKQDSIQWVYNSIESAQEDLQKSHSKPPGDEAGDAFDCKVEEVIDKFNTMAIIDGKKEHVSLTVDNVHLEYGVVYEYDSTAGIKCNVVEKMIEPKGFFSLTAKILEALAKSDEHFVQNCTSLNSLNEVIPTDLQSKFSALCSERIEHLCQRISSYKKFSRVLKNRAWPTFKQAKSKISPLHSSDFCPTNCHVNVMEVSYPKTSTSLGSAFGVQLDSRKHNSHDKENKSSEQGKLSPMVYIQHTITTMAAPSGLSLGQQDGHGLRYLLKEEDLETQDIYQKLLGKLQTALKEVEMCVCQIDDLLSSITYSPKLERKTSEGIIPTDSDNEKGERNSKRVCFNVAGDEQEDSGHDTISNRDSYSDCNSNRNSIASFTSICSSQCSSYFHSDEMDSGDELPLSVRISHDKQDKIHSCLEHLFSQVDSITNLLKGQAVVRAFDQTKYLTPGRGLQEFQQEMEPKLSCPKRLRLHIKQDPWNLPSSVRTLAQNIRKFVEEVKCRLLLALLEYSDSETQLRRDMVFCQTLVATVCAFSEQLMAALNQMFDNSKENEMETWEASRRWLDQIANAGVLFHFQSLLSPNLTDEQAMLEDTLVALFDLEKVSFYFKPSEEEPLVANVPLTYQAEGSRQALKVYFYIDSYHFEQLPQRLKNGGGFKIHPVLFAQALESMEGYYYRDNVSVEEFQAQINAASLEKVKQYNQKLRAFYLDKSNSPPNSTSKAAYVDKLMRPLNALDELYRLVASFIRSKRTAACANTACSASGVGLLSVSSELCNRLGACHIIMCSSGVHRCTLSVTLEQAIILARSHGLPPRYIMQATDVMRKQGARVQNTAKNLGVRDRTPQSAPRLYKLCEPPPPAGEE

B1: GST-AHCYL1 recombinant protein (natural protein, UniProt O43865 1-530, looked up)
chain: MSMPDAMPLPGVGEELKQAKEIEDAEKYSFMATVTKAPKKQIQFADDMQEFTKFPTKTGRRSLSRSISQSSTDSYSSAASYTDSSDDEVSPREKQQTNSKGSSNFCVKNIKQAEFGRREIEIAEQDMSALISLRKRAQGEKPLAGAKIVGCTHITAQTAVLIETLCALGAQCRWSACNIYSTQNEVAAALAEAGVAVFAWKGESEDDFWWCIDRCVNMDGWQANMILDDGGDLTHWVYKKYPNVFKKIRGIVEESVTGVHRLYQLSKAGKLCVPAMNVNDSVTKQKFDNLYCCRESILDGLKRTTDVMFGGKQVVVCGYGEVGKGCCAALKALGAIVYITEIDPICALQACMDGFRVVKLNEVIRQVDVVITCTGNKNVVTREHLDRMKNSCIVCNMGHSNTEIDVTSLRTPELTWERVRSQVDHVIWPDGKRVVLLAEGRLLNLSCSTVPTFVLSITATTQALALIELYNAPEGRYKQDVYLLPKKMDEYVASLHLPSFDAHLTELTDDQAKYLGLNKNGPFKPNYYRY
notes: AHCYL1 (IRBIT); Construct details are in the supplementary materials and methods; also called AHCYL1 conjugated-GST beads; source: recombinant, purified (as described in Supplementary materials and methods)
With B1, the binding result is “binds”.
